This is an account of results in IntAct's records for PubMed 21390248.

Experiment [1] addresses 1433g_mouse Ywhag (UniProt P61982).
Experiment [2] has the same target. The source holds these as a separate data set.

Sequence of UniProt P61982 (P61982 whole entry): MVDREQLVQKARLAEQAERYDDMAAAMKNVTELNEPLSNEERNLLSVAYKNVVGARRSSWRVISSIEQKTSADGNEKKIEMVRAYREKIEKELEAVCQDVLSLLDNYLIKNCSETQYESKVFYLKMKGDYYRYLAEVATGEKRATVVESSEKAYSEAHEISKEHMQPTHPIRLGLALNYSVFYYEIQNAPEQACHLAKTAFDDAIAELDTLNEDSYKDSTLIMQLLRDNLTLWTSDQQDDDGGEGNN

For “Leucine-rich repeat serine/threonine-protein kinase 2 (Mus musculus), Q5S006 S935A”, the “effect of a mutation on the interaction” value with 1433g_mouse Ywhag [1] is reported as “decreasing interaction”. Turning to “Leucine-rich repeat serine/threonine-protein kinase 2 (Mus musculus), Q5S006 R1441G”, the “effect of a mutation on the interaction” value with 1433g_mouse Ywhag [1] is on record as “decreasing interaction”. On to “Leucine-rich repeat serine/threonine-protein kinase 2 (Mus musculus), Q5S006 G2019S”, for which the “effect of a mutation on the interaction” value in the experiment with 1433g_mouse Ywhag [1] is reported as “decreasing interaction”.

Regarding “Leucine-rich repeat serine/threonine-protein kinase 2 (Mus musculus), Q5S006 Y1699C”, the “effect of a mutation on the interaction” value in the experiment with 1433g_mouse Ywhag [2] is “decreasing interaction”.
